The results in this text go back to IntAct's records for PubMed 35512704.

To fix the notation:
B1: Speckle-type POZ protein (Homo sapiens), O43791 (parent)
chain: MSRVPSPPPPAEMSSGPVAESWCYTQIKVVKFSYMWTINNFSFCREEMGEVIKSSTFSSGANDKLKWCLRVNPKGLDEESKDYLSLYLLLVSCPKSEVRAKFKFSILNAKGEETKAMESQRAYRFVQGKDWGFKKFIRRDFLLDEANGLLPDDKLTLFCEVSVVQDSVNISGQNTMNMVKVPECRLADELGGLWENSRFTDCCLCVAGQEFQAHKAILAARSPVFSAMFEHEMEESKKNRVEINDVEPEVFKEMMCFIYTGKAPNLDKMADDLLAAADKYALERLKVMCEDALCSNLSVENAAEILILADLHSADQLKTQAVDFINYHASDVLETSGWKSMVVSHPHLVAEAYRSLASAQCPFLGPPRKRLKQS

In one test the parent is B1. Particulars: with gnaq_human GNAQ.
With MSRVPSPPPPAEMSSGPVAESWCYTQIKVVKFSYMWTINNFSFCREEMGEVIKSSTFSSGANDKLKWCLRVNPKGLDEESKDYLSLCLLLVSCPKSEVRAKFKFSILNAKGEETKAMESQRAYRFVQGKDWGFKKFIRRDFLLDEANGLLPDDKLTLFCEVSVVQDSVNISGQNTMNMVKVPECRLADELGGLWENSRFTDCCLCVAGQEFQAHKAILAARSPVFSAMFEHEMEESKKNRVEINDVEPEVFKEMMCFIYTGKAPNLDKMADDLLAAADKYALERLKVMCEDALCSNLSVENAAEILILADLHSADQLKTQAVDFINYHASDVLETSGWKSMVVSHPHLVAEAYRSLASAQCPFLGPPRKRLKQS [Y87C], the “effect of a mutation on the interaction” value was “with no effect”.

A further test covers variants of B1. As to conditions: with grm1_human GRM1, Q13255.
Chain of grm1_human GRM1, Q13255 (Q13255 whole entry, looked up): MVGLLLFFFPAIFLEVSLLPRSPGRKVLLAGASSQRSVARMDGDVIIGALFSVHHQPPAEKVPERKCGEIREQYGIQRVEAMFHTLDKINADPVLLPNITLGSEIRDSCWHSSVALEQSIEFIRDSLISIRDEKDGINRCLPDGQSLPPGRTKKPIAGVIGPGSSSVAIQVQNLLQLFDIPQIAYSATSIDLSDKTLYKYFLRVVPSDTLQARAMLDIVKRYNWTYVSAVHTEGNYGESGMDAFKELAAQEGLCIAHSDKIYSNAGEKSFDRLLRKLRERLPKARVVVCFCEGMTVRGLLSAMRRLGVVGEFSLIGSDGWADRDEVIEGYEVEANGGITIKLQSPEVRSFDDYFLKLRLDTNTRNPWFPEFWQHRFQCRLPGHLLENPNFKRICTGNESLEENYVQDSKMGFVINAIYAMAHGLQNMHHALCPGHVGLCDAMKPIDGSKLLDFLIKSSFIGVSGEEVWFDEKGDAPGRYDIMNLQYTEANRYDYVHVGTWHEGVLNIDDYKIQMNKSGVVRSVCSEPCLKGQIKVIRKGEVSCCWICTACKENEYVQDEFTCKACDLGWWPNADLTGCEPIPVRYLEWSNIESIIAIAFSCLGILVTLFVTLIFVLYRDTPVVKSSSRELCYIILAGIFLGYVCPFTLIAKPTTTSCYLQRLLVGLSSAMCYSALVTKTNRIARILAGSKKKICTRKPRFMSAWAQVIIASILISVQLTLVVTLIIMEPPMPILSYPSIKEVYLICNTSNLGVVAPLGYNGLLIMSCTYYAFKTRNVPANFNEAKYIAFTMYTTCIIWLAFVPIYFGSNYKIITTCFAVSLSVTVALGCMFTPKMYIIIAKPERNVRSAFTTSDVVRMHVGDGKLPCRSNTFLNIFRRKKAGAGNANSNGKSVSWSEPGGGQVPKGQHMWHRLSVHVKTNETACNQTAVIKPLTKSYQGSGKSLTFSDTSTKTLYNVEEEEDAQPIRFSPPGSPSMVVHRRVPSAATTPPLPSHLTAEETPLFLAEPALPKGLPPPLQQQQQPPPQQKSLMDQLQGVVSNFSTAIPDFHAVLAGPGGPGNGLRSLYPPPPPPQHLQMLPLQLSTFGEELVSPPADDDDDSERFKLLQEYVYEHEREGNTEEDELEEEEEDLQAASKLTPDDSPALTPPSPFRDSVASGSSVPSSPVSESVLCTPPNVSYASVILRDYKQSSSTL
In the case of MSRVPSPPPPAEMSSGPVAESWCYTQIKVVKFSYMWTINNFSFCREEMGEVIKSSTFSSGANDKLKWCLRVNPKGLDEESKDYLSLCLLLVSCPKSEVRAKFKFSILNAKGEETKAMESQRAYRFVQGKDWGFKKFIRRDFLLDEANGLLPDDKLTLFCEVSVVQDSVNISGQNTMNMVKVPECRLADELGGLWENSRFTDCCLCVAGQEFQAHKAILAARSPVFSAMFEHEMEESKKNRVEINDVEPEVFKEMMCFIYTGKAPNLDKMADDLLAAADKYALERLKVMCEDALCSNLSVENAAEILILADLHSADQLKTQAVDFINYHASDVLETSGWKSMVVSHPHLVAEAYRSLASAQCPFLGPPRKRLKQS [Y87C], the “effect of a mutation on the interaction” value is given as “with no effect”.

Variants of B1 are the subject of another test. Particulars: with grm3_human GRM3, Q14832.
Chain of grm3_human GRM3, Q14832 (Q14832 whole entry, looked up): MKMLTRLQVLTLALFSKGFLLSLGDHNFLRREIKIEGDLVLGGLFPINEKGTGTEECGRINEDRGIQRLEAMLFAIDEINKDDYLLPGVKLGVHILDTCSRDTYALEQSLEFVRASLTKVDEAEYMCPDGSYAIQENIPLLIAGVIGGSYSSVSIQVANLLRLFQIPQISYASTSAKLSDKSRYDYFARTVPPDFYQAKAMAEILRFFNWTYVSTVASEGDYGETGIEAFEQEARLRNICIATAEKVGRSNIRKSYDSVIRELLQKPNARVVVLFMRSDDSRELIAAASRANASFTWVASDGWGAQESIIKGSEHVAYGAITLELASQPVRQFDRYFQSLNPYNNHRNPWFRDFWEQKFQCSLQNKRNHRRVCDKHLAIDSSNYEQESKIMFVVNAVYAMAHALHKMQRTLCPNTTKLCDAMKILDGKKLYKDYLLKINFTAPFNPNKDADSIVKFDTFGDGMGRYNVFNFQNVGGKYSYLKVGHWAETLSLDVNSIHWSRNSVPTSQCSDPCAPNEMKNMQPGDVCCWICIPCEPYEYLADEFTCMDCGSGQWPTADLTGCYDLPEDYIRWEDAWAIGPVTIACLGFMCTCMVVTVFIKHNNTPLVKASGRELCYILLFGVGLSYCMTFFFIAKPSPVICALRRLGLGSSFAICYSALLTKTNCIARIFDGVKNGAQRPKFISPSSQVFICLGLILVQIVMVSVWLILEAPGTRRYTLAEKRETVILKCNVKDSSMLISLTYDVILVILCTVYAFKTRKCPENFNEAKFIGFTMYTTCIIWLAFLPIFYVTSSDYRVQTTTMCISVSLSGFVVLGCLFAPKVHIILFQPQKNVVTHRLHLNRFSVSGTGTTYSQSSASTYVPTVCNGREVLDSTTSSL
For the variant MSRVPSPPPPAEMSSGPVAESWCYTQIKVVKFSYMWTINNFSFCREEMGEVIKSSTFSSGANDKLKWCLRVNPKGLDEESKDYLSLCLLLVSCPKSEVRAKFKFSILNAKGEETKAMESQRAYRFVQGKDWGFKKFIRRDFLLDEANGLLPDDKLTLFCEVSVVQDSVNISGQNTMNMVKVPECRLADELGGLWENSRFTDCCLCVAGQEFQAHKAILAARSPVFSAMFEHEMEESKKNRVEINDVEPEVFKEMMCFIYTGKAPNLDKMADDLLAAADKYALERLKVMCEDALCSNLSVENAAEILILADLHSADQLKTQAVDFINYHASDVLETSGWKSMVVSHPHLVAEAYRSLASAQCPFLGPPRKRLKQS [Y87C], the “effect of a mutation on the interaction” value is “with no effect”.

The variants in the next test derive from B1. Particulars: with gsk3b_human GSK3B.
As for MSRVPSPPPPAEMSSGPVAESWCYTQIKVVKFSYMWTINNFSFCREEMGEVIKSSTFSSGANDKLKWCLRVNPKGLDEESKDYLSLCLLLVSCPKSEVRAKFKFSILNAKGEETKAMESQRAYRFVQGKDWGFKKFIRRDFLLDEANGLLPDDKLTLFCEVSVVQDSVNISGQNTMNMVKVPECRLADELGGLWENSRFTDCCLCVAGQEFQAHKAILAARSPVFSAMFEHEMEESKKNRVEINDVEPEVFKEMMCFIYTGKAPNLDKMADDLLAAADKYALERLKVMCEDALCSNLSVENAAEILILADLHSADQLKTQAVDFINYHASDVLETSGWKSMVVSHPHLVAEAYRSLASAQCPFLGPPRKRLKQS [Y87C], the “effect of a mutation on the interaction” value is listed as “with no effect”.

Variants of B1 are the subject of a further test. Particulars: with gtpb4_human GTPBP4, Q9BZE4.
Regarding MSRVPSPPPPAEMSSGPVAESWCYTQIKVVKFSYMWTINNFSFCREEMGEVIKSSTFSSGANDKLKWCLRVNPKGLDEESKDYLSLCLLLVSCPKSEVRAKFKFSILNAKGEETKAMESQRAYRFVQGKDWGFKKFIRRDFLLDEANGLLPDDKLTLFCEVSVVQDSVNISGQNTMNMVKVPECRLADELGGLWENSRFTDCCLCVAGQEFQAHKAILAARSPVFSAMFEHEMEESKKNRVEINDVEPEVFKEMMCFIYTGKAPNLDKMADDLLAAADKYALERLKVMCEDALCSNLSVENAAEILILADLHSADQLKTQAVDFINYHASDVLETSGWKSMVVSHPHLVAEAYRSLASAQCPFLGPPRKRLKQS [Y87C], the “effect of a mutation on the interaction” value is on record as “with no effect”.

The next test covers variants of B1. Particulars: with h33_human H3-3A.
MSRVPSPPPPAEMSSGPVAESWCYTQIKVVKFSYMWTINNFSFCREEMGEVIKSSTFSSGANDKLKWCLRVNPKGLDEESKDYLSLCLLLVSCPKSEVRAKFKFSILNAKGEETKAMESQRAYRFVQGKDWGFKKFIRRDFLLDEANGLLPDDKLTLFCEVSVVQDSVNISGQNTMNMVKVPECRLADELGGLWENSRFTDCCLCVAGQEFQAHKAILAARSPVFSAMFEHEMEESKKNRVEINDVEPEVFKEMMCFIYTGKAPNLDKMADDLLAAADKYALERLKVMCEDALCSNLSVENAAEILILADLHSADQLKTQAVDFINYHASDVLETSGWKSMVVSHPHLVAEAYRSLASAQCPFLGPPRKRLKQS [Y87C]: the “effect of a mutation on the interaction” value is “with no effect”.

A further test covers variants of B1. As to conditions: with hdac1_human HDAC1, Q13547.
Chain of hdac1_human HDAC1, Q13547 (Q13547 whole entry): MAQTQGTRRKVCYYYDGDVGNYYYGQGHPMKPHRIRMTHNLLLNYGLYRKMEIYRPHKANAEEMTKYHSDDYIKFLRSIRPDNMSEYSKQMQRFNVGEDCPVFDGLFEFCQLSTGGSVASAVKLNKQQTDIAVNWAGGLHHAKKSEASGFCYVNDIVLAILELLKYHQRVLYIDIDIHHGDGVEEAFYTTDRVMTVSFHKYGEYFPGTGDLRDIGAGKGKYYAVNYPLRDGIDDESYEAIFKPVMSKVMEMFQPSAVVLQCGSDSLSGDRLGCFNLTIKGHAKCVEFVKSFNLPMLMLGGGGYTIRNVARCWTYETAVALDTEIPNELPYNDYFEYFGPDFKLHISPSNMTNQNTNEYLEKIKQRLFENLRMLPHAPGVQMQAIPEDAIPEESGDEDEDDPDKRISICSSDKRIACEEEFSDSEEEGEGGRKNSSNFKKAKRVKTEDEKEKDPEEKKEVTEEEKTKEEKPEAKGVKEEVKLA
Consider MSRVPSPPPPAEMSSGPVAESWCYTQIKVVKFSYMWTINNFSFCREEMGEVIKSSTFSSGANDKLKWCLRVNPKGLDEESKDYLSLCLLLVSCPKSEVRAKFKFSILNAKGEETKAMESQRAYRFVQGKDWGFKKFIRRDFLLDEANGLLPDDKLTLFCEVSVVQDSVNISGQNTMNMVKVPECRLADELGGLWENSRFTDCCLCVAGQEFQAHKAILAARSPVFSAMFEHEMEESKKNRVEINDVEPEVFKEMMCFIYTGKAPNLDKMADDLLAAADKYALERLKVMCEDALCSNLSVENAAEILILADLHSADQLKTQAVDFINYHASDVLETSGWKSMVVSHPHLVAEAYRSLASAQCPFLGPPRKRLKQS [Y87C], for which the “effect of a mutation on the interaction” value is on record as “with no effect”.

The variants in the next test derive from B1. As to conditions: with hdac3_human HDAC3, O15379.
Chain of hdac3_human HDAC3, O15379 (O15379 whole entry): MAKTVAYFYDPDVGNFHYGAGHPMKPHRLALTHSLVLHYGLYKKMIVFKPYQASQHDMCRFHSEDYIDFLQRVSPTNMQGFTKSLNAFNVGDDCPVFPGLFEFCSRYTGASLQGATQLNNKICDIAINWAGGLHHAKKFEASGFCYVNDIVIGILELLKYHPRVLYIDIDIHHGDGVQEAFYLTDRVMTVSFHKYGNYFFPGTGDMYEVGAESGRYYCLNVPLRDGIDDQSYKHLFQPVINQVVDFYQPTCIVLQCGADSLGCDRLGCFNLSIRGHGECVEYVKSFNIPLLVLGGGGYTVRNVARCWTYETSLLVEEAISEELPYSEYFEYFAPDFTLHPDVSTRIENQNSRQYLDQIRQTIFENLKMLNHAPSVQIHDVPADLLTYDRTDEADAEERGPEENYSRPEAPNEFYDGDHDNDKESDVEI
For the variant MSRVPSPPPPAEMSSGPVAESWCYTQIKVVKFSYMWTINNFSFCREEMGEVIKSSTFSSGANDKLKWCLRVNPKGLDEESKDYLSLCLLLVSCPKSEVRAKFKFSILNAKGEETKAMESQRAYRFVQGKDWGFKKFIRRDFLLDEANGLLPDDKLTLFCEVSVVQDSVNISGQNTMNMVKVPECRLADELGGLWENSRFTDCCLCVAGQEFQAHKAILAARSPVFSAMFEHEMEESKKNRVEINDVEPEVFKEMMCFIYTGKAPNLDKMADDLLAAADKYALERLKVMCEDALCSNLSVENAAEILILADLHSADQLKTQAVDFINYHASDVLETSGWKSMVVSHPHLVAEAYRSLASAQCPFLGPPRKRLKQS [Y87C], the “effect of a mutation on the interaction” value is listed as “with no effect”.

Variants of B1 are the subject of a further test. Particulars: with hgf_human HGF.
With MSRVPSPPPPAEMSSGPVAESWCYTQIKVVKFSYMWTINNFSFCREEMGEVIKSSTFSSGANDKLKWCLRVNPKGLDEESKDYLSLCLLLVSCPKSEVRAKFKFSILNAKGEETKAMESQRAYRFVQGKDWGFKKFIRRDFLLDEANGLLPDDKLTLFCEVSVVQDSVNISGQNTMNMVKVPECRLADELGGLWENSRFTDCCLCVAGQEFQAHKAILAARSPVFSAMFEHEMEESKKNRVEINDVEPEVFKEMMCFIYTGKAPNLDKMADDLLAAADKYALERLKVMCEDALCSNLSVENAAEILILADLHSADQLKTQAVDFINYHASDVLETSGWKSMVVSHPHLVAEAYRSLASAQCPFLGPPRKRLKQS [Y87C], the “effect of a mutation on the interaction” value is “with no effect”.

Variants of B1 are the subject of another test. As to conditions: with h31_human H3C1, P68431.
As for MSRVPSPPPPAEMSSGPVAESWCYTQIKVVKFSYMWTINNFSFCREEMGEVIKSSTFSSGANDKLKWCLRVNPKGLDEESKDYLSLCLLLVSCPKSEVRAKFKFSILNAKGEETKAMESQRAYRFVQGKDWGFKKFIRRDFLLDEANGLLPDDKLTLFCEVSVVQDSVNISGQNTMNMVKVPECRLADELGGLWENSRFTDCCLCVAGQEFQAHKAILAARSPVFSAMFEHEMEESKKNRVEINDVEPEVFKEMMCFIYTGKAPNLDKMADDLLAAADKYALERLKVMCEDALCSNLSVENAAEILILADLHSADQLKTQAVDFINYHASDVLETSGWKSMVVSHPHLVAEAYRSLASAQCPFLGPPRKRLKQS [Y87C], the “effect of a mutation on the interaction” value was “with no effect”.

In a further test the parent is B1. Particulars: with hlab_human HLA-B.
As to MSRVPSPPPPAEMSSGPVAESWCYTQIKVVKFSYMWTINNFSFCREEMGEVIKSSTFSSGANDKLKWCLRVNPKGLDEESKDYLSLCLLLVSCPKSEVRAKFKFSILNAKGEETKAMESQRAYRFVQGKDWGFKKFIRRDFLLDEANGLLPDDKLTLFCEVSVVQDSVNISGQNTMNMVKVPECRLADELGGLWENSRFTDCCLCVAGQEFQAHKAILAARSPVFSAMFEHEMEESKKNRVEINDVEPEVFKEMMCFIYTGKAPNLDKMADDLLAAADKYALERLKVMCEDALCSNLSVENAAEILILADLHSADQLKTQAVDFINYHASDVLETSGWKSMVVSHPHLVAEAYRSLASAQCPFLGPPRKRLKQS [Y87C], the “effect of a mutation on the interaction” value is on record as “with no effect”.

In a further test the parent is B1. Particulars: with hnf1a_human HNF1A.
With MSRVPSPPPPAEMSSGPVAESWCYTQIKVVKFSYMWTINNFSFCREEMGEVIKSSTFSSGANDKLKWCLRVNPKGLDEESKDYLSLCLLLVSCPKSEVRAKFKFSILNAKGEETKAMESQRAYRFVQGKDWGFKKFIRRDFLLDEANGLLPDDKLTLFCEVSVVQDSVNISGQNTMNMVKVPECRLADELGGLWENSRFTDCCLCVAGQEFQAHKAILAARSPVFSAMFEHEMEESKKNRVEINDVEPEVFKEMMCFIYTGKAPNLDKMADDLLAAADKYALERLKVMCEDALCSNLSVENAAEILILADLHSADQLKTQAVDFINYHASDVLETSGWKSMVVSHPHLVAEAYRSLASAQCPFLGPPRKRLKQS [Y87C], the “effect of a mutation on the interaction” value is listed as “with no effect”.

Another test covers variants of B1. As to conditions: with igf1r_human IGF1R.
Turning to MSRVPSPPPPAEMSSGPVAESWCYTQIKVVKFSYMWTINNFSFCREEMGEVIKSSTFSSGANDKLKWCLRVNPKGLDEESKDYLSLCLLLVSCPKSEVRAKFKFSILNAKGEETKAMESQRAYRFVQGKDWGFKKFIRRDFLLDEANGLLPDDKLTLFCEVSVVQDSVNISGQNTMNMVKVPECRLADELGGLWENSRFTDCCLCVAGQEFQAHKAILAARSPVFSAMFEHEMEESKKNRVEINDVEPEVFKEMMCFIYTGKAPNLDKMADDLLAAADKYALERLKVMCEDALCSNLSVENAAEILILADLHSADQLKTQAVDFINYHASDVLETSGWKSMVVSHPHLVAEAYRSLASAQCPFLGPPRKRLKQS [Y87C], the “effect of a mutation on the interaction” value was “with no effect”.

The variants in a further test derive from B1. Particulars: with il7ra_human IL7R.
For MSRVPSPPPPAEMSSGPVAESWCYTQIKVVKFSYMWTINNFSFCREEMGEVIKSSTFSSGANDKLKWCLRVNPKGLDEESKDYLSLCLLLVSCPKSEVRAKFKFSILNAKGEETKAMESQRAYRFVQGKDWGFKKFIRRDFLLDEANGLLPDDKLTLFCEVSVVQDSVNISGQNTMNMVKVPECRLADELGGLWENSRFTDCCLCVAGQEFQAHKAILAARSPVFSAMFEHEMEESKKNRVEINDVEPEVFKEMMCFIYTGKAPNLDKMADDLLAAADKYALERLKVMCEDALCSNLSVENAAEILILADLHSADQLKTQAVDFINYHASDVLETSGWKSMVVSHPHLVAEAYRSLASAQCPFLGPPRKRLKQS [Y87C], the “effect of a mutation on the interaction” value is “with no effect”.

The variants in another test derive from B1. Particulars: with int12_human INTS12, Q96CB8.
Chain of int12_human INTS12, Q96CB8 (Q96CB8 whole entry): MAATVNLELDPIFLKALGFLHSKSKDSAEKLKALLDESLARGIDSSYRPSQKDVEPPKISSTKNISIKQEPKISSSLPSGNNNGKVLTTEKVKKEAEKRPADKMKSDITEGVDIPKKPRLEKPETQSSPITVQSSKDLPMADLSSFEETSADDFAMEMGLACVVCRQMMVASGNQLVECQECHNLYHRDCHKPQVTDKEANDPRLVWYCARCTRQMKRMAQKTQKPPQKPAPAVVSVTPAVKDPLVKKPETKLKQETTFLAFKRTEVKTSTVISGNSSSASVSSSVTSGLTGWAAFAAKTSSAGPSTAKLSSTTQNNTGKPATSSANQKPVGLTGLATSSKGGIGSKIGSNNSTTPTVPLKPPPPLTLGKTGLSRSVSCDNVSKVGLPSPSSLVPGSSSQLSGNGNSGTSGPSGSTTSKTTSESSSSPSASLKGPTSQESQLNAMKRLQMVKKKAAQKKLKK
For MSRVPSPPPPAEMSSGPVAESWCYTQIKVVKFSYMWTINNFSFCREEMGEVIKSSTFSSGANDKLKWCLRVNPKGLDEESKDYLSLCLLLVSCPKSEVRAKFKFSILNAKGEETKAMESQRAYRFVQGKDWGFKKFIRRDFLLDEANGLLPDDKLTLFCEVSVVQDSVNISGQNTMNMVKVPECRLADELGGLWENSRFTDCCLCVAGQEFQAHKAILAARSPVFSAMFEHEMEESKKNRVEINDVEPEVFKEMMCFIYTGKAPNLDKMADDLLAAADKYALERLKVMCEDALCSNLSVENAAEILILADLHSADQLKTQAVDFINYHASDVLETSGWKSMVVSHPHLVAEAYRSLASAQCPFLGPPRKRLKQS [Y87C], the “effect of a mutation on the interaction” value is listed as “with no effect”.
